Test results reported in patent publication US20230032737A1 (University of Pennsylvania, published 2023).

Biological target: T1, purified human factor D (from human plasma) (human, UniProt P00746 26-253)
T1 construct: mature; Also used here for the native factor D of normal human serum in the functional assays; also called human fD; fD
Experiment: SPR (Biacore-2000), purified human factor D amine-coupled to CM4 chip
Procedure: FIG. 8 depicts the results of antigen binding affinity measurements for 1F10-5 mAb using Biacore. Purified human factor D was coupled onto CM4 chip using the amine coupling method. Biacore analysis was performed on a Biacore-2000 instrument. The chip was regenerated between each binding using 50 mM NaOH.

T1 sequence (P00746 26-253): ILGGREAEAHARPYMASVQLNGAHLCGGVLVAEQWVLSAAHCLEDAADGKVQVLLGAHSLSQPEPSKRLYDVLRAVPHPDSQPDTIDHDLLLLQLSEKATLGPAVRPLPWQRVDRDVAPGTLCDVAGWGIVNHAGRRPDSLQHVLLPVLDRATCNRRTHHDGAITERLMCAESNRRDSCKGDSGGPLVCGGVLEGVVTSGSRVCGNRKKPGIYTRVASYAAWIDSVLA

B1: mAb 1F10-5 (murine anti-human factor D monoclonal antibody) (antibody, V domains shown)
VH: QIQLVQSGPELKKPGETVKISCKASGYTFTNFEMNWVKQAPGQGLNWMGCINTYTGDPIYADDFRGRFAFSLETSASTAYLQINNLKNEDMATYFCSREGGGDYWGQGTTLTVSS
VL: SIVMTQTPKFLLVSAGDRVTITCKASQSVTNDVAWYQQKPGQSPRLLIYHASNRYTGVPERFTGSGYGTDFTFTINTVQAEDLAVYFCQQDYSSPRTFGGGTKLEIKR
notes: Mouse hybridoma antibody; also called 1F10-mAb; IF10-5
  Kd: 150 pM
